Columns and labels:
Assay in all cases: SPOT array
Abp1, P15891 = target: T1, Abp1, P15891; conditions: median of control spots 935
T1 sequence (P15891 535-592, looked up): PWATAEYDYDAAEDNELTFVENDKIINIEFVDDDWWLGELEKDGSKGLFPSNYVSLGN

Bbc1, P47068 = target: T2, Bbc1, P47068; conditions: median of control spots 796
T2 sequence (P47068 1-78, looked up): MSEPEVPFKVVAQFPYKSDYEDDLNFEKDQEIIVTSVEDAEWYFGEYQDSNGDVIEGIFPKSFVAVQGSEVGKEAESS

Bem1-1, P29366 = conditions: median of control spots 4282
Bem1-2, P29366 = conditions: median of control spots 4347
Sequence of Bem1-2, P29366 (P29366 139-227): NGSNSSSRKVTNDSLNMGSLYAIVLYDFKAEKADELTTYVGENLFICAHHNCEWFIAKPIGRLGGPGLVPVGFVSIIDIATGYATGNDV

Boi1, P38041 = target: T3, Boi1, P38041; conditions: median of control spots 1162
T3 sequence (P38041 1-86, looked up): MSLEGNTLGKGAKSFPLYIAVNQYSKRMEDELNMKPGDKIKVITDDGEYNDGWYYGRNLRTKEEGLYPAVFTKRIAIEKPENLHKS

Boi2, P39969 = target: T4, Boi2, P39969; conditions: median of control spots 1161
T4 sequence (P39969 32-116, looked up): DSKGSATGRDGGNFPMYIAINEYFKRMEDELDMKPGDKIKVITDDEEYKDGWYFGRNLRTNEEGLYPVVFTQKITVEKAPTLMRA

Bud14, P27637 = target: T5, Bud14, P27637; conditions: median of control spots 956
T5 sequence (P27637 247-328, looked up): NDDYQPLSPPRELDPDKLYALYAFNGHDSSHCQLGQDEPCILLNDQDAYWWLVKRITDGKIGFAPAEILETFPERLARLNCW

Bzz1-1, P38822 = target: T6, Bzz1-1, P38822; conditions: median of control spots 4446
T6 sequence (P38822 478-572, looked up): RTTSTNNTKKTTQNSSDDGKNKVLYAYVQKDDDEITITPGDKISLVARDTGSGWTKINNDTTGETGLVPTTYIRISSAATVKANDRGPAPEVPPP

Bzz1-2, P38822 = target: T7, Bzz1-2, P38822; conditions: median of control spots 4538
T7 sequence (P38822 568-633, looked up): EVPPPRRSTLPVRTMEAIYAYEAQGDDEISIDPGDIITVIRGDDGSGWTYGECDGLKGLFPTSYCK

Cdc25, P04821 = target: T8, Cdc25, P04821; conditions: median of control spots 969
T8 sequence (P04821 50-136, looked up): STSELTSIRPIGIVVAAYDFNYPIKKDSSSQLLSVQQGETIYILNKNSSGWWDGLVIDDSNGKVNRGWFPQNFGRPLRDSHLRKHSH

Cyk3, Q07533 = target: T9, Cyk3, Q07533; conditions: median of control spots 1451
T9 sequence (Q07533 1-83, looked up): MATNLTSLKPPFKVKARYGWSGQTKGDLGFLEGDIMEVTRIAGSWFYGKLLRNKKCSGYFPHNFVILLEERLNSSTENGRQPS

Fus1, P11710 = target: T10, Fus1, P11710; conditions: median of control spots 1200
T10 sequence (P11710 432-512, looked up): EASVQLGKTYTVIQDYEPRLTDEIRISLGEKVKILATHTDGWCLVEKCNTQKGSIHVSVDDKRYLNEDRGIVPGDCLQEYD

GST = conditions: median of control spots 978
Hof1, Q05080 = target: T11, Hof1, Q05080; conditions: median of control spots 4086
T11 sequence (Q05080 590-669, looked up): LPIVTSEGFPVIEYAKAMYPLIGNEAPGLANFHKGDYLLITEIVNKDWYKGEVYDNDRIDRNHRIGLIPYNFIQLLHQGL

Hse1, P38753 = target: T12, Hse1, P38753; conditions: median of control spots 1727
T12 sequence (P38753 208-285, looked up): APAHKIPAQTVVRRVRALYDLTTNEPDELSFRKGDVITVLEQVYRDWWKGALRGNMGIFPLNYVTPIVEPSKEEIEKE

Lsb1, P53281 = target: T13, Lsb1, P53281; conditions: median of control spots 388
T13 sequence (P53281 45-122, looked up): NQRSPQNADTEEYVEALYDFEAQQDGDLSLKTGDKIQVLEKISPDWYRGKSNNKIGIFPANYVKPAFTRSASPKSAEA

Lsb3, P43603 = target: T14, Lsb3, P43603; conditions: median of control spots 406
T14 sequence (P43603 385-451, looked up): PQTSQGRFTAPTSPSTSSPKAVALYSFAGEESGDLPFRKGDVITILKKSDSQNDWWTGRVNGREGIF

Lsb4, P32793 = target: T15, Lsb4, P32793; conditions: median of control spots 397
T15 sequence (P32793 402-468, looked up): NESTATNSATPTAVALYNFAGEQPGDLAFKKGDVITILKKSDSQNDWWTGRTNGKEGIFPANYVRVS

Myo3, P36006 = conditions: median of control spots 468
Myo5, Q04439 = target: T16, Myo5, Q04439; conditions: median of control spots 471
T16 sequence (Q04439 1072-1160, looked up): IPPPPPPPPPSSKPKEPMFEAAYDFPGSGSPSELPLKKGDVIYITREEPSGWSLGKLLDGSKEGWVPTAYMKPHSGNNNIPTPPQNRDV

Nbp2, Q12163 = target: T17, Nbp2, Q12163; conditions: median of control spots 357
T17 sequence (Q12163 103-180, looked up): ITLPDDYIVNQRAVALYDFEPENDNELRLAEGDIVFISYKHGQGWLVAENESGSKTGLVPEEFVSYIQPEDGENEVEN

Pex13, P80667 = target: T18, Pex13, P80667; conditions: median of control spots 1341
T18 sequence (P80667 295-386, looked up): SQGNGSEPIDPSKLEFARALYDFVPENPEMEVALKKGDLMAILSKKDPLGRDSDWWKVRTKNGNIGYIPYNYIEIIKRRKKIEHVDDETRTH

Pin3, Q06449 = target: T19, Pin3, Q06449; conditions: median of control spots 2171
T19 sequence (Q06449 53-122, looked up): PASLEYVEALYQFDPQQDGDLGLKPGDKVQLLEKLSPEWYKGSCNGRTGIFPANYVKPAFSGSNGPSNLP

Rvs167, P39743 = conditions: median of control spots 2707
Sequence of Rvs167, P39743 (P39743 419-482): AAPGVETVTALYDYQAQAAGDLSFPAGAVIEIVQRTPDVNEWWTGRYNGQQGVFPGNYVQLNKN

Sho1, P40073 = conditions: median of control spots 1148
Sequence of Sho1, P40073 (P40073 287-367): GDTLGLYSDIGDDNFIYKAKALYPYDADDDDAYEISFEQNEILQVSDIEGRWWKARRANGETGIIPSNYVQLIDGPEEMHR

Sla1-2, P32790 = target: T20, Sla1-2, P32790; conditions: median of control spots 712
T20 sequence (P32790 60-140, looked up): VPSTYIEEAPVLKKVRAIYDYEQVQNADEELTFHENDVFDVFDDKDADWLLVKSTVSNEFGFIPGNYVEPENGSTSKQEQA

Sla1-3, P32790 = target: T21, Sla1-3, P32790; conditions: median of control spots 5475
T21 sequence (P32790 344-424, looked up): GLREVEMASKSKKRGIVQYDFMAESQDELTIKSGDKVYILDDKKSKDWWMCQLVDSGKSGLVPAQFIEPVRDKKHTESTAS

Sequence of Bem1-1, P29366 (P29366 55-141): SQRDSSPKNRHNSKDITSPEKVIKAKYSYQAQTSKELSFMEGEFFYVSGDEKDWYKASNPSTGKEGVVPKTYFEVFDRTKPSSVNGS

With LLIRWLILMPLVGSR the SPOT intensity (Abp1, P15891) was 166, the SPOT intensity (Bbc1, P47068) was 339 and the SPOT intensity (Bem1-1, P29366) was 0. The SPOT intensity (Bem1-2, P29366) was 4, the SPOT intensity (Boi1, P38041) was 23 and the SPOT intensity (Boi2, P39969) was 4. For the same binder, the SPOT intensity (Bud14, P27637) was 29, the SPOT intensity (Bzz1-1, P38822) was 3 and the SPOT intensity (Bzz1-2, P38822) was 7. The SPOT intensity (Cdc25, P04821) was 176, the SPOT intensity (Cyk3, Q07533) was 4 and the SPOT intensity (Fus1, P11710) was 168. For the same binder, the SPOT intensity (GST) was 2, the SPOT intensity (Hof1, Q05080) was 12 and the SPOT intensity (Hse1, P38753) was 25. For the same binder, the SPOT intensity (Lsb1, P53281) was 47, the SPOT intensity (Lsb3, P43603) was 6 and the SPOT intensity (Lsb4, P32793) was 25. For the same binder, the SPOT intensity (Myo3, P36006) was 34, the SPOT intensity (Myo5, Q04439) was 10 and the SPOT intensity (Nbp2, Q12163) was 215. The SPOT intensity (Pex13, P80667) was 78, the SPOT intensity (Pin3, Q06449) was 47 and the SPOT intensity (Rvs167, P39743) was 1. The SPOT intensity (Sho1, P40073) was 150, the SPOT intensity (Sla1-2, P32790) was 3 and the SPOT intensity (Sla1-3, P32790) was 7.

Work on VTHRLRISIPGITGR yielded an SPOT intensity (Abp1, P15891) of 225, an SPOT intensity (Bbc1, P47068) of 30 and an SPOT intensity (Bem1-1, P29366) of 2. For the same binder, the SPOT intensity (Bem1-2, P29366) was 4, the SPOT intensity (Boi1, P38041) was 0 and the SPOT intensity (Boi2, P39969) was 0. The SPOT intensity (Bud14, P27637) was 12, the SPOT intensity (Bzz1-1, P38822) was 0 and the SPOT intensity (Bzz1-2, P38822) was 0. It also gave an SPOT intensity (Cdc25, P04821) of 19, an SPOT intensity (Cyk3, Q07533) of 0 and an SPOT intensity (Fus1, P11710) of 14. The SPOT intensity (GST) was 1, the SPOT intensity (Hof1, Q05080) was 0 and the SPOT intensity (Hse1, P38753) was 5. The SPOT intensity (Lsb1, P53281) was 382, the SPOT intensity (Lsb3, P43603) was 8 and the SPOT intensity (Lsb4, P32793) was 22. For the same binder, the SPOT intensity (Myo3, P36006) was 13, the SPOT intensity (Myo5, Q04439) was 11 and the SPOT intensity (Nbp2, Q12163) was 72. For the same binder, the SPOT intensity (Pex13, P80667) was 20, the SPOT intensity (Pin3, Q06449) was 46 and the SPOT intensity (Rvs167, P39743) was 0. For the same binder, the SPOT intensity (Sho1, P40073) was 180, the SPOT intensity (Sla1-2, P32790) was 4 and the SPOT intensity (Sla1-3, P32790) was 0.

Binder FHLNPKRSAVLYDRP has an SPOT intensity (Abp1, P15891) of 24, an SPOT intensity (Bbc1, P47068) of 10 and an SPOT intensity (Bem1-1, P29366) of 245. For the same binder, the SPOT intensity (Bem1-2, P29366) was 308, the SPOT intensity (Boi1, P38041) was 0 and the SPOT intensity (Boi2, P39969) was 0. The SPOT intensity (Bud14, P27637) was 9, the SPOT intensity (Bzz1-1, P38822) was 3 and the SPOT intensity (Bzz1-2, P38822) was 38. It also gave an SPOT intensity (Cdc25, P04821) of 25, an SPOT intensity (Cyk3, Q07533) of 0 and an SPOT intensity (Fus1, P11710) of 309. It also gave an SPOT intensity (GST) of 5, an SPOT intensity (Hof1, Q05080) of 83 and an SPOT intensity (Hse1, P38753) of 40. For the same binder, the SPOT intensity (Lsb1, P53281) was 0, the SPOT intensity (Lsb3, P43603) was 0 and the SPOT intensity (Lsb4, P32793) was 0. It also gave an SPOT intensity (Myo3, P36006) of 0, an SPOT intensity (Myo5, Q04439) of 1 and an SPOT intensity (Nbp2, Q12163) of 0. For the same binder, the SPOT intensity (Pex13, P80667) was 35, the SPOT intensity (Pin3, Q06449) was 32 and the SPOT intensity (Rvs167, P39743) was 7. For the same binder, the SPOT intensity (Sho1, P40073) was 35, the SPOT intensity (Sla1-2, P32790) was 0 and the SPOT intensity (Sla1-3, P32790) was 140.

Work on ILARAILTIPRVLDK yielded an SPOT intensity (Abp1, P15891) of 189, an SPOT intensity (Bbc1, P47068) of 35 and an SPOT intensity (Bem1-1, P29366) of 1. It also gave an SPOT intensity (Bem1-2, P29366) of 0, an SPOT intensity (Boi1, P38041) of 0 and an SPOT intensity (Boi2, P39969) of 0. The SPOT intensity (Bud14, P27637) was 10, the SPOT intensity (Bzz1-1, P38822) was 0 and the SPOT intensity (Bzz1-2, P38822) was 2. The SPOT intensity (Cdc25, P04821) was 36, the SPOT intensity (Cyk3, Q07533) was 0 and the SPOT intensity (Fus1, P11710) was 9. For the same binder, the SPOT intensity (GST) was 0, the SPOT intensity (Hof1, Q05080) was 0 and the SPOT intensity (Hse1, P38753) was 5. For the same binder, the SPOT intensity (Lsb1, P53281) was 23, the SPOT intensity (Lsb3, P43603) was 8 and the SPOT intensity (Lsb4, P32793) was 38. For the same binder, the SPOT intensity (Myo3, P36006) was 17, the SPOT intensity (Myo5, Q04439) was 3 and the SPOT intensity (Nbp2, Q12163) was 17. For the same binder, the SPOT intensity (Pex13, P80667) was 56, the SPOT intensity (Pin3, Q06449) was 107 and the SPOT intensity (Rvs167, P39743) was 0. The SPOT intensity (Sho1, P40073) was 137, the SPOT intensity (Sla1-2, P32790) was 6 and the SPOT intensity (Sla1-3, P32790) was 4.

Reference: publication PMC2756588
